Results from patent US20240400708A1.

B1: feline IgG1a wild-type (WT) (antibody, part only; not given: Variable domains, not shown: another chain or arm of the molecule)
constant: ASTTAPSVFPLAPSCGTTSGATVALACLVLGYFPEPVTVSWNSGALTSGVHTFPAVLQASGLYSLSSMVTVPSSRWLSDTFTCNVAHPPSNTKVDKTVRKTDHPPGPKPCDCPKCPPPEMLGGPSIFIFPPKPKDTLSISRTPEVTCLVVDLGPDDSDVQITWFVDNTQVYTAKTSPREEQFNSTYRVVSVLPILHQDWLKGKEFKCKVNSKSLPSPIERTISKAKGQPHEPQVYVLPPAQEELSRNKVSVTCLIKSFHPPDIAVEWEITGQPEPENNYRTTPPQLDSDGTYFVYSKLSVDRSHWQRGNTYTCSVSHEALHSHHTQKSLTQSPGK
B2: feline IgG1a A378V (antibody, part only; not given: Variable domains, not shown: another chain or arm of the molecule; small tags and cut ends)
constant: ASTTAPSVFPLAPSCGTTSGATVALACLVLGYFPEPVTVSWNSGALTSGVHTFPAVLQASGLYSLSSMVTVPSSRWLSDTFTCNVAHPPSNTKVDKTVRKTDHPPGPKPCDCPKCPPPEMLGGPSIFIFPPKPKDTLSISRTPEVTCLVVDLGPDDSDVQITWFVDNTQVYTAKTSPREEQFNSTYRVVSVLPILHQDWLKGKEFKCKVNSKSLPSPIERTISKAKGQPHEPQVYVLPPAQEELSRNKVSVTCLIKSFHPPDIVVEWEITGQPEPENNYRTTPPQLDSDGTYFVYSKLSVDRSHWQRGNTYTCSVSHEALHSHHTQKSLTQSPGK
B3: feline IgG1a A378R (antibody, part only; not given: Variable domains, not shown: another chain or arm of the molecule)
constant: ASTTAPSVFPLAPSCGTTSGATVALACLVLGYFPEPVTVSWNSGALTSGVHTFPAVLQASGLYSLSSMVTVPSSRWLSDTFTCNVAHPPSNTKVDKTVRKTDHPPGPKPCDCPKCPPPEMLGGPSIFIFPPKPKDTLSISRTPEVTCLVVDLGPDDSDVQITWFVDNTQVYTAKTSPREEQFNSTYRVVSVLPILHQDWLKGKEFKCKVNSKSLPSPIERTISKAKGQPHEPQVYVLPPAQEELSRNKVSVTCLIKSFHPPDIRVEWEITGQPEPENNYRTTPPQLDSDGTYFVYSKLSVDRSHWQRGNTYTCSVSHEALHSHHTQKSLTQSPGK
B4: feline IgG1a A378W (antibody, part only; not given: Variable domains, not shown: another chain or arm of the molecule; small tags and cut ends)
constant: ASTTAPSVFPLAPSCGTTSGATVALACLVLGYFPEPVTVSWNSGALTSGVHTFPAVLQASGLYSLSSMVTVPSSRWLSDTFTCNVAHPPSNTKVDKTVRKTDHPPGPKPCDCPKCPPPEMLGGPSIFIFPPKPKDTLSISRTPEVTCLVVDLGPDDSDVQITWFVDNTQVYTAKTSPREEQFNSTYRVVSVLPILHQDWLKGKEFKCKVNSKSLPSPIERTISKAKGQPHEPQVYVLPPAQEELSRNKVSVTCLIKSFHPPDIWVEWEITGQPEPENNYRTTPPQLDSDGTYFVYSKLSVDRSHWQRGNTYTCSVSHEALHSHHTQKSLTQSPGK
B5: feline IgG1a A378T (antibody, part only; not given: Variable domains, not shown: another chain or arm of the molecule; small tags and cut ends)
constant: ASTTAPSVFPLAPSCGTTSGATVALACLVLGYFPEPVTVSWNSGALTSGVHTFPAVLQASGLYSLSSMVTVPSSRWLSDTFTCNVAHPPSNTKVDKTVRKTDHPPGPKPCDCPKCPPPEMLGGPSIFIFPPKPKDTLSISRTPEVTCLVVDLGPDDSDVQITWFVDNTQVYTAKTSPREEQFNSTYRVVSVLPILHQDWLKGKEFKCKVNSKSLPSPIERTISKAKGQPHEPQVYVLPPAQEELSRNKVSVTCLIKSFHPPDITVEWEITGQPEPENNYRTTPPQLDSDGTYFVYSKLSVDRSHWQRGNTYTCSVSHEALHSHHTQKSLTQSPGK
B6: feline IgG1a S252C (antibody, part only; not given: Variable domains, not shown: another chain or arm of the molecule; small tags and cut ends)
constant: ASTTAPSVFPLAPSCGTTSGATVALACLVLGYFPEPVTVSWNSGALTSGVHTFPAVLQASGLYSLSSMVTVPSSRWLSDTFTCNVAHPPSNTKVDKTVRKTDHPPGPKPCDCPKCPPPEMLGGPSIFIFPPKPKDTLCISRTPEVTCLVVDLGPDDSDVQITWFVDNTQVYTAKTSPREEQFNSTYRVVSVLPILHQDWLKGKEFKCKVNSKSLPSPIERTISKAKGQPHEPQVYVLPPAQEELSRNKVSVTCLIKSFHPPDIAVEWEITGQPEPENNYRTTPPQLDSDGTYFVYSKLSVDRSHWQRGNTYTCSVSHEALHSHHTQKSLTQSPGK
B7: feline IgG1a S252D (antibody, part only; not given: Variable domains, not shown: another chain or arm of the molecule; small tags and cut ends)
constant: ASTTAPSVFPLAPSCGTTSGATVALACLVLGYFPEPVTVSWNSGALTSGVHTFPAVLQASGLYSLSSMVTVPSSRWLSDTFTCNVAHPPSNTKVDKTVRKTDHPPGPKPCDCPKCPPPEMLGGPSIFIFPPKPKDTLDISRTPEVTCLVVDLGPDDSDVQITWFVDNTQVYTAKTSPREEQFNSTYRVVSVLPILHQDWLKGKEFKCKVNSKSLPSPIERTISKAKGQPHEPQVYVLPPAQEELSRNKVSVTCLIKSFHPPDIAVEWEITGQPEPENNYRTTPPQLDSDGTYFVYSKLSVDRSHWQRGNTYTCSVSHEALHSHHTQKSLTQSPGK
B8: feline IgG1a A378S (antibody, part only; not given: Variable domains, not shown: another chain or arm of the molecule)
constant: ASTTAPSVFPLAPSCGTTSGATVALACLVLGYFPEPVTVSWNSGALTSGVHTFPAVLQASGLYSLSSMVTVPSSRWLSDTFTCNVAHPPSNTKVDKTVRKTDHPPGPKPCDCPKCPPPEMLGGPSIFIFPPKPKDTLSISRTPEVTCLVVDLGPDDSDVQITWFVDNTQVYTAKTSPREEQFNSTYRVVSVLPILHQDWLKGKEFKCKVNSKSLPSPIERTISKAKGQPHEPQVYVLPPAQEELSRNKVSVTCLIKSFHPPDISVEWEITGQPEPENNYRTTPPQLDSDGTYFVYSKLSVDRSHWQRGNTYTCSVSHEALHSHHTQKSLTQSPGK
B9: feline IgG1a A378Y (antibody, part only; not given: Variable domains, not shown: another chain or arm of the molecule; small tags and cut ends)
constant: ASTTAPSVFPLAPSCGTTSGATVALACLVLGYFPEPVTVSWNSGALTSGVHTFPAVLQASGLYSLSSMVTVPSSRWLSDTFTCNVAHPPSNTKVDKTVRKTDHPPGPKPCDCPKCPPPEMLGGPSIFIFPPKPKDTLSISRTPEVTCLVVDLGPDDSDVQITWFVDNTQVYTAKTSPREEQFNSTYRVVSVLPILHQDWLKGKEFKCKVNSKSLPSPIERTISKAKGQPHEPQVYVLPPAQEELSRNKVSVTCLIKSFHPPDIYVEWEITGQPEPENNYRTTPPQLDSDGTYFVYSKLSVDRSHWQRGNTYTCSVSHEALHSHHTQKSLTQSPGK
B10: feline IgG1a A378Q (antibody, part only; not given: Variable domains, not shown: another chain or arm of the molecule)
constant: ASTTAPSVFPLAPSCGTTSGATVALACLVLGYFPEPVTVSWNSGALTSGVHTFPAVLQASGLYSLSSMVTVPSSRWLSDTFTCNVAHPPSNTKVDKTVRKTDHPPGPKPCDCPKCPPPEMLGGPSIFIFPPKPKDTLSISRTPEVTCLVVDLGPDDSDVQITWFVDNTQVYTAKTSPREEQFNSTYRVVSVLPILHQDWLKGKEFKCKVNSKSLPSPIERTISKAKGQPHEPQVYVLPPAQEELSRNKVSVTCLIKSFHPPDIQVEWEITGQPEPENNYRTTPPQLDSDGTYFVYSKLSVDRSHWQRGNTYTCSVSHEALHSHHTQKSLTQSPGK
B11: feline IgG1a S252A (antibody, part only; not given: Variable domains, not shown: another chain or arm of the molecule; small tags and cut ends)
constant: ASTTAPSVFPLAPSCGTTSGATVALACLVLGYFPEPVTVSWNSGALTSGVHTFPAVLQASGLYSLSSMVTVPSSRWLSDTFTCNVAHPPSNTKVDKTVRKTDHPPGPKPCDCPKCPPPEMLGGPSIFIFPPKPKDTLAISRTPEVTCLVVDLGPDDSDVQITWFVDNTQVYTAKTSPREEQFNSTYRVVSVLPILHQDWLKGKEFKCKVNSKSLPSPIERTISKAKGQPHEPQVYVLPPAQEELSRNKVSVTCLIKSFHPPDIAVEWEITGQPEPENNYRTTPPQLDSDGTYFVYSKLSVDRSHWQRGNTYTCSVSHEALHSHHTQKSLTQSPGK

What follows are molecules tested against feline FcRn complex (FcRn-α subunit and β-microglobulin), biotin labeled (feline) (assay: SPR, pH 6).
feline IgG1a S434Q (antibody) gave a Kd of 4.8 nM.
Molecule B1 has a Kd of 20.2 nM.
B2 gave a Kd of 42.9 nM.
B3 was tested, and the Kd was 36.2 nM.
With B4 the Kd was 91 nM.
With B5 the Kd was 59.2 nM.
B6 gave a Kd of 922 nM.
B7 showed a Kd of 93.5 nM.
Molecule B8 has a Kd of 48.3 nM.
For B9, the Kd was 69.6 nM.
Molecule B10 has a Kd of 49 nM.
In the case of B11, the Kd is reported as 27.1 nM.
